From patent publication US20260250421A1 (BIOCYTOGEN PHARMACEUTICALS BEIJING, published 2026)
Numbering of substitutions follows the chain as printed.

B1: 1F2 (antibody, V domains shown)
VH: QVQLVQSGGGLVQPGGSLRLSCAASGFTFSRYEMNWVRQAPGKGLEWVSYINSIGSAINYADSVKGRFTISRDNAKNSLYLQMRSLRAEDTAVYYCVREDNWNPGYWGQGTLVTVSS
VL: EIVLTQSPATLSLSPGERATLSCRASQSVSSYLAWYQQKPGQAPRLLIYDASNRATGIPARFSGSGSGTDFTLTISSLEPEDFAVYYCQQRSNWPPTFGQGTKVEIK
notes: also called anti-PTK7 antibody 1F2
B2: 1A7 (antibody, human IgG1, V domains shown)
VH: QVQLVESGGGVVQPGRSLRLSCAASGFTFSNYGMHWVRQAPGKGLEWVAVIYYDGSNKFYADSVKGRFTISRDNSKNTLYLQMSSLRAEDTAVYYCARDVAPPGSRAEYFHHWGQGTLVTVSS
VL: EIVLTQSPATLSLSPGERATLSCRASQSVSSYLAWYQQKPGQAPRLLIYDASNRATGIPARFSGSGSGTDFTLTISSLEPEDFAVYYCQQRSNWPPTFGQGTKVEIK
notes: also called anti-PTK7 antibody 1A7
B3: 2F5 (antibody, V domains shown)
VH: B2 VH with A23V, V50I, F59Y, S84N, P102A, P103A, F110L
VL: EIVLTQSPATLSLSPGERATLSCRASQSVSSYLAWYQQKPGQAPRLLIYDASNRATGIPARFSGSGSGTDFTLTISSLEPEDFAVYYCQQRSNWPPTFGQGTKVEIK
notes: also called anti-PTK7 antibody 2F5
B4: 2D11 (antibody, V domains shown)
VH: B2 VH with N31S, Y52F, F59Y, S84N, A92S, P102A, H111Q, H112N
VL: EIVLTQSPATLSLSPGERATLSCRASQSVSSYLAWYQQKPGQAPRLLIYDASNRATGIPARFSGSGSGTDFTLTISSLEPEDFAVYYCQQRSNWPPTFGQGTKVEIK
notes: also called anti-PTK7 antibody 2D11
B5: 2A5 (antibody, V domains shown)
VH: B2 VH with E6Q, Y52W, S56R, F59Y, S84N, P103A, H111Q, H112N
VL: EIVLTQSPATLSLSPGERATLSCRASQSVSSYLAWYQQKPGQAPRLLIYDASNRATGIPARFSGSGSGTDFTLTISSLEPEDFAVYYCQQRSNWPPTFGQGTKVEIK
notes: also called anti-PTK7 antibody 2A5
B6: 1A11 (antibody, V domains shown)
VH: QVQLVQSGPGLVKPSETLSLTCTVSGGSINSYYWNWIRQPPGKGLEWIGYIYYSGSTNYNPSLKSRVTISVDTSKNQFSLKLSSVTAADTAVYYCARDPHDYIRGHFDLWGRGTLFTVSS
VL: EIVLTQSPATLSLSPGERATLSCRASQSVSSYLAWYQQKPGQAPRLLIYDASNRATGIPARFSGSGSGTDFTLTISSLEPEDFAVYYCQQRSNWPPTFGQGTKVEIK
notes: also called anti-PTK7 antibody 1A11
B7: 3C4 (antibody, V domains shown)
VH: QVQLEQSRAEVKKPGESLRISCKGSGYSFTSYWISWVRQMPGKGLEWMGRIDPSDSYTNYNPSFQGHVTISADKSISTAYLQWSSLKASDTAMYYCARRDGSYFDFDYWGQGTLVTVSS
VL: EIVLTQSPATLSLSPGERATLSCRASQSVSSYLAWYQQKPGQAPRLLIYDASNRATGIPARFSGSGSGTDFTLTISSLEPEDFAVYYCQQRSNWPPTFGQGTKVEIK
notes: also called anti-PTK7 antibody 3C4
B8: 3E6 (antibody, V domains shown)
VH: B7 VH with E5V, Q6E, R8G, K23R, N59K, N61S, S102D
VL: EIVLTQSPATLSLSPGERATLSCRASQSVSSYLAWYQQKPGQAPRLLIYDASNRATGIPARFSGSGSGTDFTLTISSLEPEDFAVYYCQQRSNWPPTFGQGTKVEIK
notes: also called anti-PTK7 antibody 3E6

These binders were tested against T1, human PTK7 on human cancer cell lines (human, UniProt Q13308 31-1070) (assay: flow cytometry, NCI-H358 cells, Ab 5 ug/mL).
T1 construct: Endogenous PTK7 of human tumour cell lines; also called PTK7 on A-431, NCI-H520, NCI-N87, SK-OV-3, BT-20, HCC1954, NCI-H226, NCI-H358, HCT116, PC-3, NCI-H292, NCI-H1975 cells
T1 sequence: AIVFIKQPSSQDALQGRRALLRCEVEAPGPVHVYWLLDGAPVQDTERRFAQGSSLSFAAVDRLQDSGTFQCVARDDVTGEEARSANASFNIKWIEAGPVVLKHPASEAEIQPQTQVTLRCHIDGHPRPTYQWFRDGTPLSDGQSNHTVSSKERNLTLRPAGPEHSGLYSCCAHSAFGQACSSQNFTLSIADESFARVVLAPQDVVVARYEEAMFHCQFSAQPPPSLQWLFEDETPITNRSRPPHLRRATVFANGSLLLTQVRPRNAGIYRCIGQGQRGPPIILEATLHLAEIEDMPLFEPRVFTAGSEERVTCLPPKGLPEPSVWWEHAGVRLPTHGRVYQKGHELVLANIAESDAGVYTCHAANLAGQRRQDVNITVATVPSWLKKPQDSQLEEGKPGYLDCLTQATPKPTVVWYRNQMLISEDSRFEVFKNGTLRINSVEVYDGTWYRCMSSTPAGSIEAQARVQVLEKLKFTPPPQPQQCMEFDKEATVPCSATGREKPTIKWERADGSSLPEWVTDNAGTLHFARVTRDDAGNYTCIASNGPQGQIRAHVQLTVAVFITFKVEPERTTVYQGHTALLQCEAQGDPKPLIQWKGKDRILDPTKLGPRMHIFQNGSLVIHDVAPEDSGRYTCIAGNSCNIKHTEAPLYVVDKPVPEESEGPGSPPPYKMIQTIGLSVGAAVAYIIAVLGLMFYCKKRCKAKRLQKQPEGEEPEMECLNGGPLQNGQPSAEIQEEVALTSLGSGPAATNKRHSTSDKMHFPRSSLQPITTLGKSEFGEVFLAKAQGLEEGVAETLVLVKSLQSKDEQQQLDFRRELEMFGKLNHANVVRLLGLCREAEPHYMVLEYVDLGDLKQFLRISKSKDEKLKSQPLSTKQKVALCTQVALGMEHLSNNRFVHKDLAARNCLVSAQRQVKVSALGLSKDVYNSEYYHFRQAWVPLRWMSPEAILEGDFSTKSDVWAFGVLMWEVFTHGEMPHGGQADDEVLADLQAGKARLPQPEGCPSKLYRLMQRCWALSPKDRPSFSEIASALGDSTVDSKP
Procedure: (§1) The binding activity of anti-PTK7 antibodies to cancer cell lines was verified by flow cytometry. […] Purified anti-PTK7 antibody with a concentration of 5 μg/mL was added to each well and was incubated at 4° C. for 30 minutes. […] The cells were collected, and the mean fluorescence intensity (MFI) was determined. Human IgG1 was used as ISO control.
B1 gave an MFI of 33900. In the case of B2, the MFI is reported as 52900. Work on B3 yielded an MFI of 51900. B4 gave an MFI of 103000. Work on B5 yielded an MFI of 87700. B6 was tested, and the MFI was 89400. B7 was tested, and the MFI was 98800. In the case of B8, the MFI is reported as 117000.

The binders below were run against T1, human PTK7 on human cancer cell lines (assay: flow cytometry, NCI-H520 cells, Ab 5 ug/mL).
Procedure: as §1
Binder B1 has an MFI of 216000. B2 showed an MFI of 190000. B3 showed an MFI of 199000. Binder B4 has an MFI of 312000. Binder B5 has an MFI of 283000. With B6 the MFI was 296000. B7 gave an MFI of 282000. For B8, the MFI was 310000.

The binders below were run against T2, His-tagged human PTK7 protein (human, UniProt Q13308 31-704) (assay: BLI Octet binning on hPTK7-His; competitor 1F2).
T2 construct: Bought protein; also called hPTK7-His; not shown: His tag
T2 sequence: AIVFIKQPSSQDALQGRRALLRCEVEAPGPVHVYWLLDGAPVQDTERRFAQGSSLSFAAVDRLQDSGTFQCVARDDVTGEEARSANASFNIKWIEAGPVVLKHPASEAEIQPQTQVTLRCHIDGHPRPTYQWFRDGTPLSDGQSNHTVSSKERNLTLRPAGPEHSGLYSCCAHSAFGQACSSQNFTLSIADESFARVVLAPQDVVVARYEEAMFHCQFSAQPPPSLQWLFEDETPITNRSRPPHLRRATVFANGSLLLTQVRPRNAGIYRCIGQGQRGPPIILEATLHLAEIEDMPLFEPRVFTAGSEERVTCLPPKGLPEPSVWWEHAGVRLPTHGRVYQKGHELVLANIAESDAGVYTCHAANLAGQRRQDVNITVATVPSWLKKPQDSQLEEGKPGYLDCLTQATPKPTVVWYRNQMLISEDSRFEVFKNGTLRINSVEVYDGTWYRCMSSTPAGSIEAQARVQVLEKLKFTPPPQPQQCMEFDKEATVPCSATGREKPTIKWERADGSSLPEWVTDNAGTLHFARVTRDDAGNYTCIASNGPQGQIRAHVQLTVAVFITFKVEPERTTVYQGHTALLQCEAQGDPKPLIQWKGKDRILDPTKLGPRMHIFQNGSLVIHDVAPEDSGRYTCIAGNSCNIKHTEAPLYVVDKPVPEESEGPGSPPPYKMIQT
Procedure: (§2) Relative positions of target protein epitope between a pair of purified anti-PTK7 antibodies were analyzed by Biolayer Interferometry (BLI) using ForteBio Octet system at 30° C. A total of […] purified antibodies were used: 1A7, 1A11, 1F2, 2A5, 2D11, 2F5, 3C4 and 3E6.
(§3) 1×HBS-EP+ buffer (10 mM 4-(2-hydroxyethyl)-1-piperazineethanesulfonic acid (HEPES), 150 mM NaCl, 3 mM ethylenediaminetetraacetic acid (EDTA) and 0.05% P20, pH7.4) diluted from HBS-EP+ buffer (10×) was used as the running buffer throughout the experiment. His-tagged human PTK7 protein was captured at a flow rate of 10 μL/min, and 200 nM of antibody (Analyte 1) was injected at a flow rate of 30 μL/min to bind the ligand. Another antibody (Analyte 2) was injected under the same conditions to determine whether the binding of different antibodies interfered with each other. The binding time was 300 s for each antibody.
(§4) The binding value of each antibody was obtained using Data Analysis HT 12.0. To quantify the interference of one antibody binding to another, a binding ratio was calculated to compare each pair of antibodies. The binding ratio is defined as the binding value of the second antibody (Analyte 2), divided by the binding value of the first antibody (Analyte 1). […] In general, antibody pairs that interfere with each other have the same or overlapping epitopes.
With B1 the binding ratio was 0.03. Work on B2 yielded a binding ratio of 0.84. B3 gave a binding ratio of 0.85. B4 showed a binding ratio of 0.93. Binder B5 has a binding ratio of 0.78. Work on B6 yielded a binding ratio of 0.86. B7 showed a binding ratio of 0.9. B8 gave a binding ratio of 0.74.

Each binder was assayed against T2, His-tagged human PTK7 protein (assay: BLI Octet binning on hPTK7-His; competitor 2D11).
Procedure: as §2, §3, §4
B1 showed a binding ratio of 0.62. In the case of B2, the binding ratio is reported as 0.1. Binder B3 has a binding ratio of 0.07. Work on B4 yielded a binding ratio of 0.15. B5 gave a binding ratio of -0.07. B6 gave a binding ratio of 0.71. Binder B7 has a binding ratio of 0.91. For B8, the binding ratio was 0.76.
